According to paper PMC4855144, “Novel Coronin7 interactions with Cdc42 and N-WASP regulate actin organization and Golgi morphology” (Scientific Reports, 2016):

Experiments:
Assay in all cases: pull-down; Glutathione-Sepharose beads coated with GST alone or GST-GTPase fusions pre-loaded with GDP (DN) or GTPγS (CA), incubated with lysates of HEK293T cells expressing GFP-CRN7 WT or CRIB mutants; blot with GFP mAb K3-184-2 or anti-N-WASP; ImageJ quantification, input set at 100%
Settings in all cases: one partner purified
[1] = molecular target: T1, GST-Cdc42 dominant negative (DN/T17N), preloaded with GDP (UniProt P60953 1-191, T17N)
T1 construct: Preloaded with GDP; also called Cdc42DN; Cdc42 DN; source: E. coli BL21, purified (Glutathione Sepharose), held on glutathione-Sepharose beads
T1 sequence (P60953 whole entry T17N): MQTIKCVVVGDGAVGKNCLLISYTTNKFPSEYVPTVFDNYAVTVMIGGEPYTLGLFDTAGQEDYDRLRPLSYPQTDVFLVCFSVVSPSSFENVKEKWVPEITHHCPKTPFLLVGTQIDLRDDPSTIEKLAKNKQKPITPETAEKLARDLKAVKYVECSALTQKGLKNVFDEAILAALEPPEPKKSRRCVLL

[2] = molecular target: GST-Rac1 constitutively active (CA/Q61L), preloaded with GTPγS (UniProt P63000 1-192, Q61L)
[3] = molecular target: GST-Rac1 dominant negative (DN/T17N), preloaded with GDP (UniProt P63000 1-192, T17N)

B1: GFP-CRN7 WT (human Coronin7, full length, GFP on its N-terminus) (natural protein, UniProt P57737 1-925, looked up)
chain: MNRFRVSKFRHTEARPPRRESWISDIRAGTAPSCRNHIKSSCSLIAFNSDRPGVLGIVPLQGQGEDKRRVAHLGCHSDLVTDLDFSPFDDFLLATGSADRTVKLWRLPGPGQALPSAPGVVLGPEDLPVEVLQFHPTSDGILVSAAGTTVKVWDAAKQQPLTELAAHGDLVQSAVWSRDGALVGTACKDKQLRIFDPRTKPRASQSTQAHENSRDSRLAWMGTWEHLVSTGFNQMREREVKLWDTRFFSSALASLTLDTSLGCLVPLLDPDSGLLVLAGKGERQLYCYEVVPQQPALSPVTQCVLESVLRGAALVPRQALAVMSCEVLRVLQLSDTAIVPIGYHVPRKAVEFHEDLFPDTAGCVPATDPHSWWAGDNQQVQKVSLNPACRPHPSFTSCLVPPAEPLPDTAQPAVMETPVGDADASEGFSSPPSSLTSPSTPSSLGPSLSSTSGIGTSPSLRSLQSLLGPSSKFRHAQGTVLHRDSHITNLKGLNLTTPGESDGFCANKLRVAVPLLSSGGQVAVLELRKPGRLPDTALPTLQNGAAVTDLAWDPFDPHRLAVAGEDARIRLWRVPAEGLEEVLTTPETVLTGHTEKICSLRFHPLAANVLASSSYDLTVRIWDLQAGADRLKLQGHQDQIFSLAWSPDGQQLATVCKDGRVRVYRPRSGPEPLQEGPGPKGGRGARIVWVCDGRCLLVSGFDSQSERQLLLYEAEALAGGPLAVLGLDVAPSTLLPSYDPDTGLVLLTGKGDTRVFLYELLPESPFFLECNSFTSPDPHKGLVLLPKTECDVREVELMRCLRLRQSSLEPVAFRLPRVRKEFFQDDVFPDTAVIWEPVLSAEAWLQGANGQPWLLSLQPPDMSPVSQAPREAPARRAPSSAQYLEEKSDQQKKEELLNAMVAKLGNREDPLPQDSFEGVDEDEWD
notes: Coronin7 (CRN7), human, wild type, full length; CRIB motifs at 116-130 (NT-CRIB) and 582-599 (CT-CRIB); also called full-length CRN7; source: HEK293T, transfected (PEI), in lysate; not shown: GFP, N-terminal, kept
percent of input bound [1]: 65 % of input | percent of input bound [2]: 7 % of input | percent of input bound [3]: ~17 % of input
